Experimental data taken from patent US6767887.

Experiments:
GLP-1-(7-36)-NH2, P01275 = biological target: T1, GLP-1-(7-36)-NH2, P01275
T1 chain: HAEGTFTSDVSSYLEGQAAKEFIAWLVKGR

[1] = biological target: T2, [Ala^2,Nle^14,Arg^30]-Ex-3-(1-30)-NH2
T2 chain: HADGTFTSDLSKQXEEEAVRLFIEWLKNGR

B1: dipeptidyl peptidase IV (protein)
chain: MKTPWKVLLGLLGAAALVTIITVPVVLLNKGTDDATADSRKTYTLTDYLKNTYRLKLYSLRWISDHEYLYKQENNILVFNAEYGNSSVFLENSTFDEFGHSINDYSISPDGQFILLEYNYVKQWRHSYTASYDIYDLNKRQLITEERIPNNTQWVTWSPVGHKLAYVWNNDIYVKIEPNLPSYRITWTGKEDIIYNGITDWVYEEEVFSAYSALWWSPNGTFLAYAQFNDTEVPLIEYSFYSDESLQYPKTVRVPYPKAGAVNPTVKFFVVNTDSLSSVTNATSIQITAPASMLIGDHYLCDVTWATQERISLQWLRRIQNYSVMDICDYDESSGRWNCLVARQHIEMSTTGWVGRFRPSEPHFTLDGNSFYKIISNEEGYRHICYFQIDKKDCTFITKGTWEVIGIEALTSDYLYYISNEYKGMPGGRNLYKIQLSDYTKVTCLSCELNPERCQYYSVSFSKEAKYYQLRCSGPGLPLYTLHSSVNDKGLRVLEDNSALDKMLQNVQMPSKKLDFIILNETKFWYQMILPPHFDKSKKYPLLLDVYAGPCSQKADTVFRLNWATYLASTENIIVASFDGRGSGYQGDKIMHAINRRLGTFEVEDQIEAARQFSKMGFVDNKRIAIWGWSYGGYVTSMVLGSGSGVFKCGIAVAPVSRWEYYDSVYTERYMGLPTPEDNLDHYRNSTVMSRAENFKQVEYLLIHGTADDNVHFQQSAQISKALVDVGVDFQAMWYTDEDHGIASSTAHQHIYTHMSHFIKQCFSLP
- Substrate for DDP-IV (GLP-1-(7-36)-NH2, P01275): 50% proteolysis
- Substrate for DDP-IV [1]: no proteolysis
